From article doi:10.1101/2021.04.25.441346 (bioRxiv, 2021) come the findings set out here.

The assay concerns the target T1, GST-AFF1 (AUXIN RESPONSE FACTOR F-BOX1, At3g49150) (Arabidopsis thaliana, UniProt Q9M3B7 1-630).
T1 sequence (looked up): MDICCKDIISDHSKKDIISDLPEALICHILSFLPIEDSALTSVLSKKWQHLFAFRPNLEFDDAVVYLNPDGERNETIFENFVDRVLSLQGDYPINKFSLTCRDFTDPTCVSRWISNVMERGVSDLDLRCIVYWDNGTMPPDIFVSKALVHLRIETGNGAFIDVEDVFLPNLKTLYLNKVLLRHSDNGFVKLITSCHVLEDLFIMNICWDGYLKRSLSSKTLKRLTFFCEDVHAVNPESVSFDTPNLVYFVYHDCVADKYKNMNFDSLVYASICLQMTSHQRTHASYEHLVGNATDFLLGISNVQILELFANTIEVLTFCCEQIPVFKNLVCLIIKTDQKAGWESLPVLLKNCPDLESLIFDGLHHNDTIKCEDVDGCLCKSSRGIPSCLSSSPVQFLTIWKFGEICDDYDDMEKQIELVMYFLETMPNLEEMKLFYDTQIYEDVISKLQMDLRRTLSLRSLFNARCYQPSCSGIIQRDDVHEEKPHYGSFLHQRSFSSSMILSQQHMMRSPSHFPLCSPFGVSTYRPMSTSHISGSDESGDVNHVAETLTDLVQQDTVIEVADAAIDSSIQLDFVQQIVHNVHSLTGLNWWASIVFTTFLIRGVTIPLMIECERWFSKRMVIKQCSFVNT
The experiment in a line: pull-down.

B1: His-ASK1 (ARABIDOPSIS SKP1-LIKE 1) (natural protein, Arabidopsis thaliana, UniProt Q39255 1-160, looked up)
chain: MSAKKIVLKSSDGESFEVEEAVALESQTIAHMVEDDCVDNGVPLPNVTSKILAKVIEYCKRHVEAAASKAEAVEGAATSDDDLKAWDADFMKIDQATLFELILAANYLNIKNLLDLTCQTVADMIKGKTPEEIRTTFNIKNDFTPEEEEEVRRENQWAFE
For B1, the binding result was “binds”.
